Where two headings read alike, the source gives them in different places.
How the values were obtained:
HCT116 = test: cells; assay type: cell-based, human
Description: Cells were plated in 96 well black walled-clear bottom plates (Griener), DLD-1 WT cells at 2500 cells per well, FaDu, and HeLa cells at 5000 cells per well, and HCT116 at 3000 cells per well, in growth media containing 10% FBS. Cells were allowed to adhere at room temperature for 60 minutes before returning to a 37 C, 5% CO2 incubator. After 24 hours, media was removed and replaced with fresh growth media containing various drug concentrations. Each drug concentration was added in triplicate. Non-drug treated controls contained growth media only. Cells were returned to the incubator. Ninety-six hours after addition of drug, cells were fixed with 4% paraformaldehyde for 20 minutes and stained with Hoechst at 1 ug/mL. The plates were imaged on a Cytation 5 auto imager (BioTek) and cells were counted using CellProfiler (http://cellprofiler.org). The percent cell growth delay was calculated and data plotted using GraphPad Prism

[1] = Glutathione cleavage study; assay type: in vitro ADME; conditions: Tris buffer with 10 mM glutathione, Glutathione Challenge (10 mM), 100 μM conjugate, Tris pH 7.5, 37° C.
Description: A 20 mM stock of conjugate was prepared in 100% DMSO. The stocks were subsequently diluted in 100 mM Tris, pH 7.5, to yield an intermediate dilution of 500 μM followed by an additional dilution of 1:5 in 100 mM Tris, pH 7.5 to give a final concentration of 100 μM of conjugate. 100 mM glutathione was prepared immediately prior to use in H2O and diluted 1:10 in challenge samples for a final glutathione challenge concentration of 10 mM. Samples were mixed by inversion and incubated at 37° C. for up to 24 hrs. […]
(§1) Samples were thawed and extracted as follows: 8 μL of 25% phosphoric acid followed by 117 μL of 100% acetonitrile/0.1% TFA were added to each sample, mixed and centrifuged at 13000×G for 10 minutes. The supernatant was pipetted into 0.2 mL HPLC vials and placed on a Perkin Elmer Flexar HPLC autosampler. The following table summarizes HPLC conditions:
Data was analyzed by calculating the percentage reduction of compound (area of retention time peak of […] conjugate/area of retention time peak of conjugate at time 0)×100.

Plasma stability studies = assay type: in vitro ADME; conditions: rat plasma, 100 μM conjugate, 37° C.
Description: A 20 mM stock of conjugate was prepared in 100% DMSO. The stocks were subsequently diluted in 100 mM Tris, pH 7.5 to yield an intermediate dilution of 500 μM and then diluted 1:5 directly into rat plasma to yield a final concentration of 100 μM of conjugate. Samples were mixed by inversion and incubated at 37° C. for up to 24 h. 50 μL samples were aliquoted into siliconized microfuge tubes at time 0, 4, and 24 h and immediately frozen at −80° C.
as §1, with “100% Acetonitrile/0.1%” for “100% acetonitrile/0.1%”, “TFA was” for “TFA were”
Data was analyzed by calculating the percentage reduction of compound (area of retention time peak of incubated conjugate/area of retention time peak of conjugate at time 0)×100.

SMILES	IC50 (HCT116; 96 h)	remaining at 4 h, 100 µM [1]	remaining at 24 h, 100 µM [1]	remaining at 4 h, 100 µM (Plasma stability studies)	remaining at 24 h, 100 µM (Plasma stability studies)	IC50 (HCT116; HCT-116 cells, 96 h after addition of drug, second table (Compounds 11-29), read-out: HCT-116 (IC50))
CC[C@@]1(O)C(=O)OCc2c1cc1n(c2=O)Cc2c-1nc1cc(F)c(C)c3c1c2[C@@H](NC(=O)O[C@H]1CCc2ccccc2[C@@H]1SSC[C@H](NC(=O)[C@H](Cc1c[nH]c2ccccc12)NC(=O)[C@H](CC(C)C)NC(=O)[C@H](CC(C)C)NC(=O)[C@H](CC(=O)O)NC(=O)[C@H](CC(C)C)NC(=O)[C@H](CC(C)C)NC(=O)[C@H](CC(C)C)NC(=O)[C@@H](NC(=O)[C@H](CC(=O)O)NC(=O)[C@@H](NC(=O)[C@@H]1CCCN1C(=O)[C@H](Cc1ccccc1)NC(=O)[C@H](CC(C)C)NC(=O)[C@H](CC(C)C)NC(=O)[C@H](CC(=O)O)NC(=O)[C@H](CC(C)C)NC(=O)[C@H](Cc1ccc(O)cc1)NC(=O)[C@H](C)NC(=O)[C@H](CCCNC(=N)N)NC(=O)[C@H](Cc1c[nH]c2ccccc12)NC(=O)[C@@H]1CCCN1C(=O)[C@H](CC(N)=O)NC(=O)[C@H](CCC(N)=O)NC(=O)[C@H](CC(=O)O)NC(=O)[C@H](CC(=O)O)NC(=O)[C@H](C)N)[C@@H](C)O)[C@@H](C)O)C(=O)NCC(=O)O)CC3 [Compound 24]	3.4 nM	20.8%	4.2%	87%	87%	
CC[C@@]1(O)C(=O)OCc2c1cc1n(c2=O)Cc2c-1nc1cc(F)c(C)c3c1c2[C@@H](NC(=O)OC[C@@H](SSC[C@H](NC(=O)[C@H](Cc1c[nH]c2ccccc12)NC(=O)[C@H](CC(C)C)NC(=O)[C@H](CC(C)C)NC(=O)[C@H](CC(=O)O)NC(=O)[C@H](CC(C)C)NC(=O)[C@H](CC(C)C)NC(=O)[C@H](CC(C)C)NC(=O)[C@@H](NC(=O)[C@H](CC(=O)O)NC(=O)[C@@H](NC(=O)[C@@H]1CCCN1C(=O)[C@H](Cc1ccccc1)NC(=O)[C@H](CC(C)C)NC(=O)[C@H](CC(C)C)NC(=O)[C@H](CC(=O)O)NC(=O)[C@H](CC(C)C)NC(=O)[C@H](Cc1ccc(O)cc1)NC(=O)[C@H](C)NC(=O)[C@H](CCCNC(=N)N)NC(=O)[C@H](Cc1c[nH]c2ccccc12)NC(=O)[C@@H]1CCCN1C(=O)[C@H](CC(N)=O)NC(=O)[C@H](CCC(N)=O)NC(=O)[C@H](CC(=O)O)NC(=O)[C@H](CC(=O)O)NC(=O)[C@H](C)N)[C@@H](C)O)[C@@H](C)O)C(=O)NCC(=O)O)C(C)C)CC3 [Compound 27]	0.7 nM	18%	0%	117%	109%	
CC[C@@]1(O)C(=O)OCc2c1cc1n(c2=O)Cc2c-1nc1cc(F)c(C)c3c1c2[C@@H](NC(=O)O[C@@H]1CCCCC[C@H]1SSC[C@H](NC(=O)[C@H](Cc1c[nH]c2ccccc12)NC(=O)[C@H](CC(C)C)NC(=O)[C@H](CC(C)C)NC(=O)[C@H](CC(=O)O)NC(=O)[C@H](CC(C)C)NC(=O)[C@H](CC(C)C)NC(=O)[C@H](CC(C)C)NC(=O)[C@@H](NC(=O)[C@H](CC(=O)O)NC(=O)[C@@H](NC(=O)[C@@H]1CCCN1C(=O)[C@H](Cc1ccccc1)NC(=O)[C@H](CC(C)C)NC(=O)[C@H](CC(C)C)NC(=O)[C@H](CC(=O)O)NC(=O)[C@H](CC(C)C)NC(=O)[C@H](Cc1ccc(O)cc1)NC(=O)[C@H](C)NC(=O)[C@H](CCCNC(=N)N)NC(=O)[C@H](Cc1c[nH]c2ccccc12)NC(=O)[C@@H]1CCCN1C(=O)[C@H](CC(N)=O)NC(=O)[C@H](CCC(N)=O)NC(=O)[C@H](CC(=O)O)NC(=O)[C@H](CC(=O)O)NC(=O)[C@H](C)N)[C@@H](C)O)[C@@H](C)O)C(=O)NCC(=O)O)CC3 [Compound 22]	5.9 nM	65.8%	12.3%	106%	105%	
CC[C@@]1(O)C(=O)OCc2c1cc1n(c2=O)Cc2c-1nc1cc(F)c(C)c3c1c2[C@@H](NC(=O)O[C@H]1CCCCC[C@@H]1SSC[C@H](NC(=O)[C@H](Cc1c[nH]c2ccccc12)NC(=O)[C@H](CC(C)C)NC(=O)[C@H](CC(C)C)NC(=O)[C@H](CC(=O)O)NC(=O)[C@H](CC(C)C)NC(=O)[C@H](CC(C)C)NC(=O)[C@H](CC(C)C)NC(=O)[C@@H](NC(=O)[C@H](CC(=O)O)NC(=O)[C@@H](NC(=O)[C@@H]1CCCN1C(=O)[C@H](Cc1ccccc1)NC(=O)[C@H](CC(C)C)NC(=O)[C@H](CC(C)C)NC(=O)[C@H](CC(=O)O)NC(=O)[C@H](CC(C)C)NC(=O)[C@H](Cc1ccc(O)cc1)NC(=O)[C@H](C)NC(=O)[C@H](CCCNC(=N)N)NC(=O)[C@H](Cc1c[nH]c2ccccc12)NC(=O)[C@@H]1CCCN1C(=O)[C@H](CC(N)=O)NC(=O)[C@H](CCC(N)=O)NC(=O)[C@H](CC(=O)O)NC(=O)[C@H](CC(=O)O)NC(=O)[C@H](C)N)[C@@H](C)O)[C@@H](C)O)C(=O)NCC(=O)O)CC3 [Compound 23]	11.9 nM	61.4%	13.2%	92%	92%	
CC[C@@]1(O)C(=O)OCc2c1cc1n(c2=O)Cc2c-1nc1cc(F)c(C)c3c1c2[C@@H](NC(=O)O[C@H](C)[C@@H](C)SSC[C@H](NC(=O)[C@H](Cc1c[nH]c2ccccc12)NC(=O)[C@H](CC(C)C)NC(=O)[C@H](CC(C)C)NC(=O)[C@H](CC(=O)O)NC(=O)[C@H](CC(C)C)NC(=O)[C@H](CC(C)C)NC(=O)[C@H](CC(C)C)NC(=O)[C@@H](NC(=O)[C@H](CC(=O)O)NC(=O)[C@@H](NC(=O)[C@@H]1CCCN1C(=O)[C@H](Cc1ccccc1)NC(=O)[C@H](CC(C)C)NC(=O)[C@H](CC(C)C)NC(=O)[C@H](CC(=O)O)NC(=O)[C@H](CC(C)C)NC(=O)[C@H](Cc1ccc(O)cc1)NC(=O)[C@H](C)NC(=O)[C@H](CCCNC(=N)N)NC(=O)[C@H](Cc1c[nH]c2ccccc12)NC(=O)[C@@H]1CCCN1C(=O)[C@H](CC(N)=O)NC(=O)[C@H](CCC(N)=O)NC(=O)[C@H](CC(=O)O)NC(=O)[C@H](CC(=O)O)NC(=O)[C@H](C)N)[C@@H](C)O)[C@@H](C)O)C(=O)NCC(=O)O)CC3 [Compound 12]						2.6 nM
CC[C@@]1(O)C(=O)OCc2c1cc1n(c2=O)Cc2c-1nc1cc(F)c(C)c3c1c2[C@@H](NC(=O)O[C@H]1Cc2ccccc2C[C@@H]1SSC[C@H](NC(=O)[C@H](Cc1c[nH]c2ccccc12)NC(=O)[C@H](CC(C)C)NC(=O)[C@H](CC(C)C)NC(=O)[C@H](CC(=O)O)NC(=O)[C@H](CC(C)C)NC(=O)[C@H](CC(C)C)NC(=O)[C@H](CC(C)C)NC(=O)[C@@H](NC(=O)[C@H](CC(=O)O)NC(=O)[C@@H](NC(=O)[C@@H]1CCCN1C(=O)[C@H](Cc1ccccc1)NC(=O)[C@H](CC(C)C)NC(=O)[C@H](CC(C)C)NC(=O)[C@H](CC(=O)O)NC(=O)[C@H](CC(C)C)NC(=O)[C@H](Cc1ccc(O)cc1)NC(=O)[C@H](C)NC(=O)[C@H](CCCNC(=N)N)NC(=O)[C@H](Cc1c[nH]c2ccccc12)NC(=O)[C@@H]1CCCN1C(=O)[C@H](CC(N)=O)NC(=O)[C@H](CCC(N)=O)NC(=O)[C@H](CC(=O)O)NC(=O)[C@H](CC(=O)O)NC(=O)[C@H](C)N)[C@@H](C)O)[C@@H](C)O)C(=O)NCC(=O)O)CC3 [Compound 19]	1.8 nM					
CC[C@@]1(O)C(=O)OCc2c1cc1n(c2=O)Cc2c-1nc1cc(F)c(C)c3c1c2[C@@H](NC(=O)O[C@@H]1CCCC[C@H]1SSC[C@H](NC(=O)[C@H](Cc1c[nH]c2ccccc12)NC(=O)[C@H](CC(C)C)NC(=O)[C@H](CC(C)C)NC(=O)[C@H](CC(=O)O)NC(=O)[C@H](CC(C)C)NC(=O)[C@H](CC(C)C)NC(=O)[C@H](CC(C)C)NC(=O)[C@@H](NC(=O)[C@H](CC(=O)O)NC(=O)[C@@H](NC(=O)[C@@H]1CCCN1C(=O)[C@H](Cc1ccccc1)NC(=O)[C@H](CC(C)C)NC(=O)[C@H](CC(C)C)NC(=O)[C@H](CC(=O)O)NC(=O)[C@H](CC(C)C)NC(=O)[C@H](Cc1ccc(O)cc1)NC(=O)[C@H](C)NC(=O)[C@H](CCCNC(=N)N)NC(=O)[C@H](Cc1c[nH]c2ccccc12)NC(=O)[C@@H]1CCCN1C(=O)[C@H](CC(N)=O)NC(=O)[C@H](CCC(N)=O)NC(=O)[C@H](CC(=O)O)NC(=O)[C@H](CC(=O)O)NC(=O)[C@H](C)N)[C@@H](C)O)[C@@H](C)O)C(=O)NCC(=O)O)CC3 [Compound 13]	21 nM					

Source: patent US12410262B2, “Peptide conjugates of cytotoxins as therapeutics” (Cybrexa 2, Inc., priority 2019, dated 2025)
